Among the data in the RNAGym collection of RNA variant scans (doi:10.7554/elife.90254) are self-cleavage values, retold here.

To fix the notation:
B1: LINE1-mini (parent)
chain: GGCAGAGCUCAACACAGCGUGGCAAAGUGGCUGUGGCUAGACUGCC

Variants of B1 are the subject of this data set. Description: self-cleavage, relative activity (ratio to wild type); higher = more cleavage; in vitro, sequencing; the parent is a self-cleaving ribozyme.
For the variant U43A C45G, the self-cleavage turned out to be 0.08.
Take U43A C45U: the self-cleavage stood at 0.16.
The same measure for U43A C45A: 0.08; for A39C G44C: 0.04; for A39C G44U: 0.1.
The same measure for A39C G44A: 0.08; for G40A C46U: 0.14.
The same measure for G40A C46G: 0.11; for G40A C46A: 0.14.
Turning to G40C C42G, the self-cleavage was determined as 0.1.
As for G40C C42A, the self-cleavage was 0.07.
The same measure for G40C C42U: 0.07.
The same measure for C42G C45G: 0.09; for C42G C45A: 0.04.
The same measure for C42G C45U: 0.05; for G44A C45G: 0.2; for G44A C45U: 0.1.
As for G44A C45A, the self-cleavage was 0.07.
The same measure for A39G U43A: 0.04.
The same measure for A39G U43C: 0.04; for A39G U43G: 0.12.
In the case of G40C C46U, the self-cleavage turned out to be 0.08.
As for G40C C46G, the self-cleavage is 0.08.
G40C C46A: the self-cleavage amounted to 0.1.
The same measure for A39C U43C: 0.08.
Consider A39C U43A, for which the self-cleavage was 0.04.
The same measure for A39C C46G: 0.17; for A39C C46U: 0.2; for A39C C46A: 0.13.
The same measure for C42A G44U: 0.11; for C42A G44C: 0.12.
In the case of C42A G44A, the self-cleavage turned out to be 0.25.
On to A39G A41U, for which the self-cleavage amounted to 0.07.
The same measure for A39G A41G: 0.01; for A39G A41C: 0.03.
The same measure for G40A U43G: 0.09; for G40A U43A: 0.06; for G40A U43C: 0.08.
G40A C42A: the self-cleavage was found to be 0.1.
The same measure for G40A C42U: 0.09; for G40A C42G: 0.09.
The same measure for G44C C46U: 0.14; for G44C C46A: 0.1; for G44C C46G: 0.08.
The same measure for U43C G44U: 0.09.
Regarding U43C G44C, the self-cleavage was found to be 0.08.
The same measure for U43C G44A: 0.11; for C42U: 0.35; for C42G: 0.07.
The same measure for C42A: 0.17; for A39G: 0.1; for A39C: 0.26.
The same measure for A39U: 0.8; for G44U C45G: 0.17; for G44U C45A: 0.11.
Consider G44U C45U, for which the self-cleavage was 0.14.
The same measure for G40C C45U: 0.1; for G40C C45G: 0.05.
As to G40C C45A, the self-cleavage worked out at 0.09.
Consider C45G C46A, for which the self-cleavage came to 0.21.
For C45G C46G, the self-cleavage amounted to 0.53.
The same measure for C45G C46U: 0.66; for U43C: 0.14; for U43A: 0.11.
With U43G, the self-cleavage was 0.12.
As for G40U A41G, the self-cleavage worked out at 0.09.
The same measure for G40U A41C: 0.2; for G40U A41U: 0.37; for C45U C46U: 1.03.
For C45U C46G, the self-cleavage came to 0.39.
Take C45U C46A: the self-cleavage was 0.63.
The same measure for A39G C45A: 0.1.
For the variant A39G C45G, the self-cleavage was determined as 0.09.
The same measure for A39G C45U: 0.06; for A39C C42G: 0.06; for A39C C42U: 0.05.
With A39C C42A, the self-cleavage turned out to be 0.1.
On to C42U C45U, for which the self-cleavage was 0.26.
With C42U C45G, the self-cleavage came out at 0.09.
The same measure for C42U C45A: 0.14.
The same measure for U43G C46U: 0.28; for U43G C46A: 0.18.
The same measure for U43G C46G: 0.32.
In the case of G40C, the self-cleavage turned out to be 0.09.
On to G40U, for which the self-cleavage turned out to be 0.15.
In the case of G40A, the self-cleavage is 0.14.
The same measure for U43C C46U: 0.1; for U43C C46A: 0.11; for U43C C46G: 0.12.
As for A39C G40A, the self-cleavage came to 0.08.
The same measure for A39C G40U: 0.11; for A39C G40C: 0.07; for A39U U43C: 0.06.
On to A39U U43A, for which the self-cleavage came to 0.06.
For the variant A39U U43G, the self-cleavage stood at 0.02.
The same measure for G40U G44A: 0.14; for G40U G44U: 0.12; for G40U G44C: 0.16.
A41U C45G: the self-cleavage came to 0.23.
The same measure for A41U C45U: 0.55; for A41U C45A: 0.19.
Consider A41U, for which the self-cleavage was 0.67.
On to A41G, for which the self-cleavage came to 0.34.
The same measure for A41C: 0.06; for G40A A41G: 0.08.
The same measure for G40A A41U: 0.26.
The same measure for G40A A41C: 0.13; for G44C C45A: 0.05; for G44C C45G: 0.21.
Take G44C C45U: the self-cleavage came out at 0.06.
As to G44U C46G, the self-cleavage was 0.08.
The same measure for G44U C46U: 0.12; for G44U C46A: 0.08.
The same measure for C45U: 1.43; for C45G: 0.39.
The same measure for C45A: 0.64.
As to A39U G44A, the self-cleavage came to 0.18.
The same measure for A39U G44U: 0.12.
With A39U G44C, the self-cleavage worked out at 0.09.
For A39G C42A, the self-cleavage came out at 0.09.
A39G C42G: the self-cleavage was 0.03.
With A39G C42U, the self-cleavage worked out at 0.12.
The same measure for A39C A41G: 0.1; for A39C A41U: 0.4.
The same measure for A39C A41C: 0.62; for U38G G44C: 0.06.
The same measure for U38G G44U: 0.03; for U38G G44A: 0.03.
Regarding A41U G44U, the self-cleavage was determined as 0.16.
Regarding A41U G44C, the self-cleavage was 0.49.
The same measure for A41U G44A: 0.31.
As to G40U U43G, the self-cleavage is 0.47.
Regarding G40U U43C, the self-cleavage was determined as 0.15.
G40U U43A: the self-cleavage was 0.08.
The same measure for G40A C45A: 0.12.
Take G40A C45U: the self-cleavage is 0.16.
With G40A C45G, the self-cleavage was 0.13.
The same measure for C42U U43C: 0.11.
The same measure for C42U U43G: 0.15; for C42U U43A: 0.12; for A39U C46A: 0.75.
For the variant A39U C46G, the self-cleavage was 0.5.
For A39U C46U, the self-cleavage came to 0.46.
Regarding A39U G40C, the self-cleavage was found to be 0.18.
The same measure for A39U G40U: 0.14; for A39U G40A: 0.17; for C42A U43C: 0.09.
The same measure for C42A U43A: 0.15; for C42A U43G: 0.07; for C45A C46U: 0.4.
In the case of C45A C46G, the self-cleavage came to 0.36.
C45A C46A: the self-cleavage was found to be 0.24.
With A41C C46G, the self-cleavage was determined as 0.07.
The same measure for A41C C46A: 0.05; for A41C C46U: 0.04; for A39G G40U: 0.14.
A39G G40C: the self-cleavage is 0.08.
A39G G40A: the self-cleavage was determined as 0.05.
For G40A G44A, the self-cleavage came out at 0.19.
The same measure for G40A G44C: 0.08.
The same measure for G40A G44U: 0.08; for C42U G44A: 0.16; for C42U G44U: 0.1.
C42U G44C: the self-cleavage came out at 0.13.
The same measure for U43A C46G: 0.14.
With U43A C46A, the self-cleavage was found to be 0.1.
Consider U43A C46U, for which the self-cleavage turned out to be 0.13.
Take A41U C46U: the self-cleavage worked out at 0.9.
For A41U C46A, the self-cleavage stood at 0.33.
The same measure for A41U C46G: 0.57.
The same measure for C42U C46U: 0.24; for C42U C46G: 0.19.
The same measure for C42U C46A: 0.16; for C42A C45U: 0.13.
Turning to C42A C45G, the self-cleavage amounted to 0.21.
The same measure for C42A C45A: 0.09; for U38G U43A: 0.02; for U38G U43C: 0.05.
Regarding U38G U43G, the self-cleavage came out at 0.02.
As for C42G C46U, the self-cleavage came to 0.09.
As for C42G C46G, the self-cleavage turned out to be 0.04.
Regarding C42G C46A, the self-cleavage was determined as 0.04.
The same measure for G40C U43A: 0.06.
In the case of G40C U43C, the self-cleavage is 0.07.
The same measure for G40C U43G: 0.41; for G40U C42A: 0.09.
For the variant G40U C42G, the self-cleavage was 0.08.
The same measure for G40U C42U: 0.07.
As to A41C G44A, the self-cleavage turned out to be 0.05.
The same measure for A41C G44U: 0.11.
Regarding A41C G44C, the self-cleavage is 0.08.
For the variant U43A G44U, the self-cleavage was 0.18.
For U43A G44A, the self-cleavage came out at 0.1.
The same measure for U43A G44C: 0.1; for A41U U43A: 0.17; for A41U U43C: 0.09.
The same measure for A41U U43G: 0.17; for G44A C46G: 0.12.
In the case of G44A C46U, the self-cleavage turned out to be 0.16.
With G44A C46A, the self-cleavage is 0.08.
Take A39U C45U: the self-cleavage was determined as 0.85.
The same measure for A39U C45A: 0.18; for A39U C45G: 0.24.
The same measure for G40C G44C: 0.06; for G40C G44A: 0.12; for G40C G44U: 0.07.
For the variant U43C C45U, the self-cleavage worked out at 0.13.
Consider U43C C45A, for which the self-cleavage came to 0.08.
The same measure for U43C C45G: 0.1.
A41C C45U: the self-cleavage was determined as 0.1.
Regarding A41C C45G, the self-cleavage worked out at 0.1.
Turning to A41C C45A, the self-cleavage amounted to 0.11.
The same measure for C42A C46A: 0.2.
With C42A C46G, the self-cleavage is 0.07.
As for C42A C46U, the self-cleavage worked out at 0.19.
The same measure for A41G C42U: 0.11.
The same measure for A41G C42G: 0.06; for A41G C42A: 0.12.
The same measure for A39U A41G: 0.14; for A39U A41C: 0.13.
Regarding A39U A41U, the self-cleavage was determined as 0.67.
For G40U C45G, the self-cleavage came out at 0.14.
The same measure for G40U C45A: 0.09; for G40U C45U: 0.15; for A41C U43G: 0.06.
As for A41C U43C, the self-cleavage is 0.08.
Turning to A41C U43A, the self-cleavage came out at 0.11.
The same measure for C42G U43G: 0.06.
Turning to C42G U43A, the self-cleavage is 0.06.
On to C42G U43C, for which the self-cleavage came out at 0.03.
The same measure for G44C: 0.36.
The same measure for G44U: 0.32.
The same measure for G44A: 0.44.
Regarding A41G U43G, the self-cleavage is 0.05.
As for A41G U43A, the self-cleavage came out at 0.05.
Turning to A41G U43C, the self-cleavage amounted to 0.04.
The same measure for U43G G44A: 0.37; for U43G G44C: 0.32.
With U43G G44U, the self-cleavage was determined as 0.25.
As for A39U C42G, the self-cleavage turned out to be 0.03.
Regarding A39U C42A, the self-cleavage worked out at 0.1.
Consider A39U C42U, for which the self-cleavage worked out at 0.23.
The same measure for A41G C45G: 0.05; for A41G C45A: 0.09; for A41G C45U: 0.49.
The same measure for A39G C46G: 0.08; for A39G C46U: 0.07; for A39G C46A: 0.14.
The same measure for C42G G44C: 0.06; for C42G G44A: 0.12; for C42G G44U: 0.06.
Consider G40C A41C, for which the self-cleavage was 0.09.
On to G40C A41G, for which the self-cleavage amounted to 0.07.
The same measure for G40C A41U: 0.14; for U43G C45U: 0.19.
The same measure for U43G C45G: 0.09; for U43G C45A: 0.32.
As to G40U C46A, the self-cleavage amounted to 0.12.
The same measure for G40U C46U: 0.11; for G40U C46G: 0.06.
On to A41G G44A, for which the self-cleavage is 0.08.
The same measure for A41G G44U: 0.06; for A41G G44C: 0.05; for A41C C42G: 0.07.
The same measure for A41C C42A: 0.05.
A41C C42U: the self-cleavage came to 0.05.
Take C46A: the self-cleavage was determined as 0.9.
The same measure for C46U: 1.03.
The same measure for C46G: 0.99; for A41G C46A: 0.22; for A41G C46U: 0.16.
For A41G C46G, the self-cleavage was determined as 0.08.
With A41U C42U, the self-cleavage is 0.09.
As for A41U C42G, the self-cleavage worked out at 0.07.
The same measure for A41U C42A: 0.09.
The same measure for A39G G44C: 0.09.
The same measure for A39G G44A: 0.16; for A39G G44U: 0.22; for A39C C45U: 0.24.
In the case of A39C C45G, the self-cleavage stood at 0.12.
The same measure for A39C C45A: 0.14.
